Results as given in the supplement of paper PMC10567573.

B1: CAMK2A (parent)
chain: CIQQILEAVLHCHQMGVVHRDLKP
B2: INTS4 (parent)
chain: YSSGEFSSGRKWGDDAPKEEVDTG

Variants of: B1
Test: protein stability index of a GFP-peptide fusion (GPS, HEK-293T) (PSI 1-6); higher = more stable
Details: c terminus: a fixed tail appended
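Note: lentivirally expressed fusions sorted by FACS into six bins by GFP to DsRed ratio, PSI derived from sequencing read proportions per bin multiplied by bin number.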

| Variant | protein stability index |
| --- | --- |
| D21M | 2.17 |
| D21S | 1.66 |
| D21W | 3.37 |
| D21P | 2.07 |
| D21G | 2.28 |
| D21K | 4.29 |
| D21Q | 2.22 |
| D21R | 2.75 |
| D21A | 4.17 |
| D21H | 2.62 |
| D21C | 2.86 |
| D21L | 3.01 |
| D21T | 2.36 |
| D21I | 3.1 |
| D21F | 2.97 |
| D21N | 4.66 |
| L22S | 2.34 |
| L22Y | 1.95 |
| L22R | 1.03 |
| L22E | 2.96 |
| L22G | 2.03 |
| L22C | 3.02 |
| L22A | 2.87 |

| Variant | protein stability index |
| --- | --- |
| L22P | 1.82 |
| L22W | 2.28 |
| L22Q | 1.62 |
| L22H | 1.99 |
| L22K | 2.53 |
| L22T | 3.01 |
| L22F | 2.66 |
| L22N | 2.03 |
| L22I | 3.05 |
| P24C | 1.95 |
| P24S | 2.12 |
| P24L | 1.78 |
| P24M | 3.07 |
| P24Q | 1.86 |
| P24F | 2.58 |
| P24D | 2.99 |
| P24G | 2.88 |
| P24I | 3.7 |
| P24K | 2.31 |
| P24R | 2.44 |
| P24Y | 3 |
| P24W | 1.82 |
| K23H | 3.03 |

| Variant | protein stability index |
| --- | --- |
| K23W | 3.83 |
| K23S | 1.65 |
| K23Y | 3.71 |
| K23R | 3.33 |
| K23E | 2.61 |
| K23N | 3.36 |
| K23V | 1.76 |
| K23D | 3.12 |
| K23P | 2.63 |
| K23C | 3.94 |
| K23I | 2.2 |
| K23L | 2.73 |
| R20L | 2.54 |
| R20Y | 2.17 |
| R20N | 1.52 |
| R20G | 2.37 |
| R20K | 2.66 |
| R20I | 1.85 |
| R20W | 3.1 |
| R20P | 1.77 |
| R20T | 3.37 |

Variants of: B2
Test: as above
Details: c terminus: a fixed tail appended

| Variant | protein stability index |
| --- | --- |
| G4E | 4.08 |
| G4V | 3.87 |
| G4F | 3.6 |
| G4N | 4.01 |
| G4H | 4.42 |
| G4I | 4.11 |
| G4K | 3.31 |
| G4W | 2.43 |
| G4C | 3.61 |
| G4A | 3.56 |
| G4Y | 3.91 |
| G4R | 2.22 |
| G4T | 3.61 |
| G4S | 4.02 |
| G4L | 3.33 |
| G4M | 3.75 |
| G4Q | 3.92 |
| G4D | 4.57 |
| G4P | 3.11 |
| S2W | 3.81 |
| S2P | 2.31 |
| S2N | 4.64 |
| S2F | 4.02 |
| S2L | 3.48 |
| S2V | 1.59 |

| Variant | protein stability index |
| --- | --- |
| S2H | 1.48 |
| S2M | 3.97 |
| S2E | 5.4 |
| S2Q | 2.48 |
| S2D | 5.77 |
| S2I | 2.42 |
| S2G | 1.95 |
| S2A | 2.28 |
| S2K | 5.2 |
| S2R | 5.05 |
| S2T | 2.67 |
| S2C | 2.04 |
| S2Y | 4.92 |
| F6K | 4.65 |
| F6G | 4.57 |
| F6I | 4.67 |
| F6C | 5.11 |
| F6A | 4.88 |
| F6H | 4.96 |
| F6D | 5.75 |
| S3F | 3.93 |
| S3K | 4.51 |
| S3G | 3.5 |
| S3I | 4.01 |
| S3C | 4.1 |

| Variant | protein stability index |
| --- | --- |
| S3R | 4.47 |
| S3A | 4.89 |
| S3P | 4.1 |
| S3Q | 3.86 |
| S3E | 5.22 |
| S3T | 3.83 |
| S3D | 5.15 |
| S3M | 3.91 |
| S3Y | 4.13 |
| S3N | 4.08 |
| S3V | 4.77 |
| S3L | 4.59 |
| S3H | 4.43 |
| S3W | 2.89 |
| E5M | 2.68 |
| E5K | 2.22 |
| E5G | 2.78 |
| E5A | 2.75 |
| E5S | 3.07 |
| E5Q | 2.14 |
| E5N | 3.27 |
| E5I | 1.97 |
| E5T | 3.55 |
| E5H | 2.16 |
| E5D | 3.64 |

| Variant | protein stability index |
| --- | --- |
| E5P | 2.95 |
| E5L | 2.11 |
| E5C | 1.84 |
| E5F | 1.76 |
| E5R | 2.15 |
| E5Y | 1.04 |
| E5V | 1.32 |
| Y1V | 5.8 |
| Y1G | 5.47 |
| Y1K | 5.62 |
| Y1P | 5.42 |
| Y1L | 5.79 |
| Y1T | 5.12 |
| Y1S | 5.81 |
| Y1M | 5.39 |
| Y1N | 5.22 |
| Y1W | 4.52 |
| Y1H | 5.51 |
| Y1D | 5.8 |
| Y1C | 3.87 |
| Y1Q | 5.66 |
| Y1R | 5.71 |
| Y1I | 5.55 |
| Y1A | 4.93 |
| Y1E | 5.74 |
